Laboratory results: patent US20190010224A1 (Merck Sharp & Dohme, published 2019)

Legend:
recombinant human IL-10 [1] = biological target: T1, recombinant human IL-10 (human, UniProt P22301 19-178); assay: binding ELISA on immobilized recombinant human IL-10; potency relative to reference material; sample stored at 5 C, 6 months
T1 construct: Immobilized on ELISA microtiter plates; also called interleukin-10
Description: (§1) In the ELISA assay, individual dose response curves were generated by using a serial dilution of anti-IL10 reference material or test samples binding to recombinant human IL-10 immobilized on ELISA microtiter plates. Then, by using a SoftMax Pro GxP four-parameter logistic curve fitting analysis, EC₅₀ values of reference material as a control and test samples were determined and a reference-to-sample EC₅₀ ratio was calculated as relative potency for a test sample. Final results were reported as potency relative to reference material.

recombinant human IL-10 [2] = biological target: T1, recombinant human IL-10; assay: binding ELISA on immobilized recombinant human IL-10; potency relative to reference material; sample stored at 5 C, initial time point
Description: as §1

recombinant human IL-10 [3] = biological target: T1, recombinant human IL-10; assay: binding ELISA on immobilized recombinant human IL-10; potency relative to reference material; sample stored at 5 C, 3 months
Description: as §1

recombinant human IL-10 [4] = biological target: T1, recombinant human IL-10; assay: binding ELISA on immobilized recombinant human IL-10; potency relative to reference material; sample stored at 5 C, 1 month
Description: as §1

T1 sequence (P22301 19-178 limits assumed): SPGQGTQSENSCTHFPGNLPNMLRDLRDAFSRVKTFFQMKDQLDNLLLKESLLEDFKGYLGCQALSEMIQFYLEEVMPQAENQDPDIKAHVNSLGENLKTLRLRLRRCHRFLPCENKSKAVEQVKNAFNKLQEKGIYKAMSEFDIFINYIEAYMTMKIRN

B1: anti-IL-10 hum12G8 (antibody, human IgG1, kappa, V domains shown)
VH: QVQLVESGGGVVQPGRSLRLSCAASGFTFSDYHMAWVRQAPGKGLEWVASITLDATYTYYRDSVRGRFTISRDNSKNTLYLQMNSLRAEDTAVYYCARHRGFSVWLDYWGQGTLVTVSS
VL: DIQMTQSPSSLSASVGDRVTITCKTSQNIFENLAWYQQKPGKAPKLLIYNASPLQAGVPSRFSGSGSGTDFTLTISSLQPEDFATYYCHQYYSGYTFGPGTKLELKR
notes: Humanized antibody expressed in CHO cells; It was tested as 50 mg/mL drug product in 10 mM histidine, 7% sucrose, 0.02% PS-80, pH 5.5; also called humanized 12G8; hu12G8
Recombinant human IL-10 [1]
  Potency Binding ELISA/Biological Potency, % (reference-to-sample EC50 ratio): 105%
Recombinant human IL-10 [2]
  Potency Binding ELISA/Biological Potency, % (reference-to-sample EC50 ratio): 101%
Recombinant human IL-10 [3]
  Potency Binding ELISA/Biological Potency, % (reference-to-sample EC50 ratio): 99%
Recombinant human IL-10 [4]
  Potency Binding ELISA/Biological Potency, % (reference-to-sample EC50 ratio): 115%
